From patent publication EP4239334A1 (Consorcio Centro de Investigación Biomédica en Red (CIBER), dated 2023)

T1: NF-κB p50 subunit (endogenous, HEK-293T cells) (UniProt P19838 1-433, limits assumed)
T1 construct: Endogenous protein co-precipitated with HA-IκBα from transfected HEK-293T cells; also called p50 NF-κB
T1 sequence (looked up): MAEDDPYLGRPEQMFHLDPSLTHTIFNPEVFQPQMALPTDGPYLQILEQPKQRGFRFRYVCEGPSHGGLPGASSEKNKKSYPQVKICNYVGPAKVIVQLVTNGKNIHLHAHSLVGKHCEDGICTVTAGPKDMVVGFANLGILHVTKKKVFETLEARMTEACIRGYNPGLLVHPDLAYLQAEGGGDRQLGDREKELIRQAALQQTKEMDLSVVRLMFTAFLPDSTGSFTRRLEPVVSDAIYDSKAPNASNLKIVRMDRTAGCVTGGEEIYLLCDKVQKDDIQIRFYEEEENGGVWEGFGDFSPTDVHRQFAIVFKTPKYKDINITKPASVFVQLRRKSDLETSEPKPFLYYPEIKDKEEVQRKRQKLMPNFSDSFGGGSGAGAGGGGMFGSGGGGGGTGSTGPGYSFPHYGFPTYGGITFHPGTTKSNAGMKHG


Columns and labels:
[1] = target: T1, NF-κB p50 subunit (endogenous, HEK-293T …); assay: PD and Co-IP
[2] = target: T2, NF-κB p65 subunit (endogenous, HEK-293T cells) (UniProt Q04206 1-551); assay: PD and Co-IP
T2 construct: Endogenous protein co-precipitated with HA-IκBα from transfected HEK-293T cells; also called p65/NF-κB; p65/RelA
T2 sequence (Q04206 whole entry): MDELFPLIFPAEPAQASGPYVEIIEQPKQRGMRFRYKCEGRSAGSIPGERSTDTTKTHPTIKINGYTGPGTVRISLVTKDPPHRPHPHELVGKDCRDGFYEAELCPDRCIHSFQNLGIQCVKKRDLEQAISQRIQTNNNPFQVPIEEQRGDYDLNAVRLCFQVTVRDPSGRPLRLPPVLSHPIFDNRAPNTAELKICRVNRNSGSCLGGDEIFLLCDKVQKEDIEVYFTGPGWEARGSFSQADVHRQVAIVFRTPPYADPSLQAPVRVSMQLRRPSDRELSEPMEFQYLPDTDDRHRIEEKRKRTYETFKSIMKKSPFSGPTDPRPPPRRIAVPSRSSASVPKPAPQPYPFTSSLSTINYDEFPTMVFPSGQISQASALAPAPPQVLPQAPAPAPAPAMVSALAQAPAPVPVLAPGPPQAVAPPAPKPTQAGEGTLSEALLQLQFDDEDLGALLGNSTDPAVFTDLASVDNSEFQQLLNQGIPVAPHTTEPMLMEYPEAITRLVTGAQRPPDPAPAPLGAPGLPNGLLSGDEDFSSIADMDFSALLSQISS

[3] = target: T1, NF-κB p50 subunit (endogenous, HEK-293T …); assay: Co-IP from transfected HEK-293T cells, WB
[4] = target: T2, NF-κB p65 subunit (endogenous, HEK-293T …); assay: Co-IP from transfected HEK-293T cells, WB
[5] = target: T1, NF-κB p50 subunit (endogenous, HEK-293T …); assay: Co-IP of single point mutants, WB
[6] = target: T2, NF-κB p65 subunit (endogenous, HEK-293T …); assay: Co-IP of single point mutants, WB

Binder | binding result [5] | binding result [6] | further results
IκBα HEE84-86AAA / SOF^NF-κB (SEQ ID NO: 1) (other, Compose mutant of IκBα, expressed in HEK-293T cells; also called IκBα SOF^NF-κB; H84, E85, E86 to A; not shown: HA tag) MFQAAERPQEWAMEGPRDGLKKERLLDDRHDSGLDSMKDEEYEQMVKELQEIRLEPQEVPRGSEPWKQQLTEDGDSFLHLAIIAAAKALTMEVIRQVKGDLAFLNFQNNLQQTPLHLAVITNQPEIAEALLGAGCDPELRDFRGNTPLHLACEQGCLASVGVLTQSCTTPHLHSILKATNYNGHTCLHLASIHGYLGIVELLVSLGADVNAQEPCNGRTALHLAVDLQNPDLVSLLLKCGADVNRVTYQGYSPYQLTWGRPSTRIQQQLGQLTLENLQMLPESEDEESYDTESEFTEFTEDELPYDDCVFGGQRLTL |  |  | binding result [1]: binds; binding result [2]: binds
IκBα compose mutant H84, E85, E86, N108, Q112 to A (other, not shown: HA tag) MFQAAERPQEWAMEGPRDGLKKERLLDDRHDSGLDSMKDEEYEQMVKELQEIRLEPQEVPRGSEPWKQQLTEDGDSFLHLAIIAAAKALTMEVIRQVKGDLAFLNFQANLQATPLHLAVITNQPEIAEALLGAGCDPELRDFRGNTPLHLACEQGCLASVGVLTQSCTTPHLHSILKATNYNGHTCLHLASIHGYLGIVELLVSLGADVNAQEPCNGRTALHLAVDLQNPDLVSLLLKCGADVNRVTYQGYSPYQLTWGRPSTRIQQQLGQLTLENLQMLPESEDEESYDTESEFTEFTEDELPYDDCVFGGQRLTL |  |  | binding result [3]: no binding; binding result [4]: no binding

Now from value to binder, other results behind:

binding result [5] | binding result [6] | Binder | further results
no binding | no binding | IκBα N108A / SOF^PRC2 (SEQ ID NO: 3) (other, Single point mutant of IκBα; also called IκBα SOF^PRC2 mutant N108A; IkBa N108A; not shown: HA tag) MFQAAERPQEWAMEGPRDGLKKERLLDDRHDSGLDSMKDEEYEQMVKELQEIRLEPQEVPRGSEPWKQQLTEDGDSFLHLAIIHEEKALTMEVIRQVKGDLAFLNFQANLQQTPLHLAVITNQPEIAEALLGAGCDPELRDFRGNTPLHLACEQGCLASVGVLTQSCTTPHLHSILKATNYNGHTCLHLASIHGYLGIVELLVSLGADVNAQEPCNGRTALHLAVDLQNPDLVSLLLKCGADVNRVTYQGYSPYQLTWGRPSTRIQQQLGQLTLENLQMLPESEDEESYDTESEFTEFTEDELPYDDCVFGGQRLTL | 
no binding | no binding | IκBα D75A / SOF^PRC2 (SEQ ID NO: 2) (other, Single point mutant of IκBα; also called IκBα SOF^PRC2; IkBa D75A; not shown: HA tag) MFQAAERPQEWAMEGPRDGLKKERLLDDRHDSGLDSMKDEEYEQMVKELQEIRLEPQEVPRGSEPWKQQLTEDGASFLHLAIIHEEKALTMEVIRQVKGDLAFLNFQNNLQQTPLHLAVITNQPEIAEALLGAGCDPELRDFRGNTPLHLACEQGCLASVGVLTQSCTTPHLHSILKATNYNGHTCLHLASIHGYLGIVELLVSLGADVNAQEPCNGRTALHLAVDLQNPDLVSLLLKCGADVNRVTYQGYSPYQLTWGRPSTRIQQQLGQLTLENLQMLPESEDEESYDTESEFTEFTEDELPYDDCVFGGQRLTL | 
